One molecule from patent US20220265819A1 can be followed below.

Test [1] deals with full length pHrodo-labelled monomeric (P301S) 2N4R tau (human) (UniProt P10636). Description: cell-based or functional assay.
Test [2] has as its target full length pHrodo-labelled aggregated (P301S) 2N4R tau (human) (UniProt P10636). Description: cell-based or functional assay.

full length pHrodo-labelled aggregated (P301S) 2N4R tau (human), sequence (P10636 other isoform, or with tags, fused parts or gaps P301S P301S): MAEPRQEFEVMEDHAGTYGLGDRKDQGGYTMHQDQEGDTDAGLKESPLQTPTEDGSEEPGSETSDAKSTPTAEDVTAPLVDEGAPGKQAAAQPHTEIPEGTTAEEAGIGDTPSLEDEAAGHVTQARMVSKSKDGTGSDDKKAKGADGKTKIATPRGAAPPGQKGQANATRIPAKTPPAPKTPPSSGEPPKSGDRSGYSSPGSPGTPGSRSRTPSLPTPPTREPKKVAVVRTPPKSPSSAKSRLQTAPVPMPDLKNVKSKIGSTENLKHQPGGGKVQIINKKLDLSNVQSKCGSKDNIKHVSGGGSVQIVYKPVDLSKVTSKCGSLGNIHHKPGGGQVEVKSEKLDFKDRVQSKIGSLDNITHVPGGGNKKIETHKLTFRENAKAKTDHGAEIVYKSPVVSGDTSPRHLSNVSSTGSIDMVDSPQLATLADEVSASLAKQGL
full length pHrodo-labelled monomeric (P301S) 2N4R tau (human), sequence (P10636 other isoform, or with tags, fused parts or gaps P301S P301S): as above

B1: Clone 1 rabbit monoclonal IgG (antibody, V domains shown)
VH: QSLEESGGGLVKPGGTLTLTCTVSGFSLNNYDMSWVRQAPGKGLEWIGTVSTTYRRYYASWAKGRFTISKTSSTTVDLKMTSLTTEDTATYFCAASGIWGPGTLVTVSL
VL: AQVLTQTTSPVSAAVGGTVTINCQSSQRVYSNYLAWYQQKPGQPPKRLIFLASTLESGVPSRFSGSGSGTQFTLTISDLECDDAATYYCAGTYTGSIWAFGGGTEVVVKG
As to B1, in test [1], the inhibition of uptake of monomeric tau by human iPSC-derived astrocytes came to 39.8 % inhibition and the inhibition of uptake of monomeric tau into human iPSC-derived neurons was determined as 41.2 % inhibition. Also, in test [2], the inhibition of uptake of aggregated tau by human iPSC-derived astrocytes stood at 46.3 % inhibition, the inhibition of uptake of aggregated tau into human iPSC-derived neurons turned out to be 65 % inhibition and the inhibition of uptake of pHrodo-labelled aggregated tau into human iPSC-derived neurons at 4 h worked out at 69 % inhibition.
